In patent publication US20110312881A1 (AMUNIX, published 2011):

Biological target: T1, XTEN_AM875-hGH (human, UniProt P01241 27-217)
T1 construct: Negative control in the IL-1 receptor ELISA
Test: ELISA, plate-coated mouse IL-1R/Fc
Experimental: To evaluate the activity of the IL-1ra-containing XTEN fusion proteins, an ELISA based receptor binding assay was used. Here the wells of a Costar 3690 assay plate were coated overnight with 50 ng per well of mouse IL-1 receptor fused to Fc domain of human IgG (IL-1R/Fc, R&D Systems). Subsequently the wells were blocked with 3% BSA to prevent nonspecific interactions with the solid phase. After thoroughly washing the wells, a dilution series of either IL-1ra-XTEN_AM875, XTEN_AM875-IL-1ra, or IL-1ra (anakinra) was applied to the wells. The binding reaction was allowed to proceed for 2 hr at room temperature. Unbound Il-1ra was removed by repeated washing. The bound IL-1ra ad IL-1ra-XTEn fusions were detected with a biotinylated anti-human II-1ra antibody and a horseradish peroxidase-conjugated streptavidin. […] The absorbance of each well at 450 nm and 570 nm was recorded on a SpectrMax 384Plus spectrophotometer. The corrected absorbance signal (Abscorr=Abs₄₅₀ₙₘ−Abs₅₇₀ₙₘ) was plotted as a function of IL-1ra-XTEN or IL-1ra concentration to produce a binding isotherm as shown in FIG. 17.
To estimate the binding affinity of each fusion protein for the IL-1 receptor, the binding data was fit to a sigmoidal dose-response curve. From the fit of the data an EC50 (the concentration of IL-1ra or IL-1ra-XTEN at which the signal is half maximal) for each construct was determined.

T1 sequence (P01241 other isoform, or with tags, fused parts or gaps limits assumed): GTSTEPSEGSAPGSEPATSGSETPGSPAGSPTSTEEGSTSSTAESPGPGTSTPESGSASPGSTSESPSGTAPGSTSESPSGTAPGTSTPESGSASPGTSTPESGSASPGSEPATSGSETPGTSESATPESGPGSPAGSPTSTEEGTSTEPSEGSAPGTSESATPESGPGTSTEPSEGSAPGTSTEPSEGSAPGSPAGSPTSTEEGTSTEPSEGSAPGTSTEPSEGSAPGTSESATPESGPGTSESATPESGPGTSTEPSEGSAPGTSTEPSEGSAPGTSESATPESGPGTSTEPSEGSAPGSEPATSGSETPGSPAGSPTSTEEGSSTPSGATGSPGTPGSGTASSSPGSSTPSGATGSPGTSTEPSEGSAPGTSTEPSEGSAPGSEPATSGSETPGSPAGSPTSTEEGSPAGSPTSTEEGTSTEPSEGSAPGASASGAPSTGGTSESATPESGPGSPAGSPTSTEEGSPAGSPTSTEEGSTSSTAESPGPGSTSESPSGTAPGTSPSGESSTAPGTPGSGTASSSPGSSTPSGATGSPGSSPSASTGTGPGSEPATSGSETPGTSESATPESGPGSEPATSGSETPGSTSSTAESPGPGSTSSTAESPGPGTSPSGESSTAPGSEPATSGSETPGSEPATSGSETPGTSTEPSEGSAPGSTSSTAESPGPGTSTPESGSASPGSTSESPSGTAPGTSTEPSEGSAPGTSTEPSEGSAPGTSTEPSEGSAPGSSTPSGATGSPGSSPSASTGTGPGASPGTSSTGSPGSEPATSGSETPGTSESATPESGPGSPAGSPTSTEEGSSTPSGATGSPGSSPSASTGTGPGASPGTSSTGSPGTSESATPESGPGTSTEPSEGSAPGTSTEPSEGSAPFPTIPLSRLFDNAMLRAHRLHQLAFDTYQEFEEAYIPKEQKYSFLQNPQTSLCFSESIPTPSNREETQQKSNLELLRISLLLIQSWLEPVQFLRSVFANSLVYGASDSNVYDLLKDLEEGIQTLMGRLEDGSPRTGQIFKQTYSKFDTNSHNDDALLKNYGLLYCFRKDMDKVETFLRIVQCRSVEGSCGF

binding result: no binding
B1: mouse IL-1 receptor fused to Fc domain of human IgG (IL-1R/Fc, R&D Systems) (Fc fusion, UniProt P13504 20-338, looked up)
chain: LEIDVCTEYPNQIVLFLSVNEIDIRKCPLTPNKMHGDTIIWYKNDSKTPISADRDSRIHQQNEHLWFVPAKVEDSGYYYCIVRNSTYCLKTKVTVTVLENDPGLCYSTQATFPQRLHIAGDGSLVCPYVSYFKDENNELPEVQWYKNCKPLLLDNVSFFGVKDKLLVRNVAEEHRGDYICRMSYTFRGKQYPVTRVIQFITIDENKRDRPVILSPRNETIEADPGSMIQLICNVTGQFSDLVYWKWNGSEIEWNDPFLAEDYQFVEHPSTKRKYTLITTLNISEVKSQFYRYPFICVVKNTNIFESAHVQLIYPVPDFK
notes: Bought reagent, coated on the plate at 50 ng per well; not shown: Fc domain of human IgG
